# Experimental data taken from US20250171562A1 (ALK ABELL, published 2025).
# Target: T1, recombinant human IgE (human, UniProt P01854-1 1-428)
# T1 construct: made in-house (ALK); preloaded on immobilised FcεRIα in the displacement ELISA
# Test: IgE-FcεRIα displacement ELISA
# Procedure, shortened: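 Streptavidin-coated plates carried site-specifically biotinylated recombinant human FcεRIα, loaded with recombinant human IgE at 13 ng/ml. sdAbs in a pM–μM series were added for 1 h, and displaced IgE was washed off. Percent displacement was the signal reduction versus the no-sdAb control, giving EC50 and maximal effect.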
# T1 sequence (P01854 other isoform, or with tags, fused parts or gaps): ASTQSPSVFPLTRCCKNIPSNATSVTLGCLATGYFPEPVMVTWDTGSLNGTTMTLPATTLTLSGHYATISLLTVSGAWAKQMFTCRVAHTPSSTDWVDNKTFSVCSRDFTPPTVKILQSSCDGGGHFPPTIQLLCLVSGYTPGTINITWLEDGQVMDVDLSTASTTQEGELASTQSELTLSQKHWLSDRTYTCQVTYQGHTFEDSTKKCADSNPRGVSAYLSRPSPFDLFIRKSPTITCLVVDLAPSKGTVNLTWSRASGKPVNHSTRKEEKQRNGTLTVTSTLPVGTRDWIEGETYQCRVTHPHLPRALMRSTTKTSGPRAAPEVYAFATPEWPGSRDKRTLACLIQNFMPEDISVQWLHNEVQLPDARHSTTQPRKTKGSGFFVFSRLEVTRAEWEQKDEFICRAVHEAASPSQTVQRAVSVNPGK
EC50,Max effect,Binder
410 nM,65%,CIgG4E2A1(G4S)2 (Fc fusion) chain 1: GPPCPPCPAPEFLGGPSVFLFPPKPKDTLMISRTPEVTCVVVDVSQEDPEVQFNWYVDGVEVHNAKTKPREEQFNSTYRVVSVLTVLHQDWLNGKEYKCKVSNKGLPSSIEKTISKAKGQPREPQVYTLPPCQEEMTKNQVSLWCLVKGFYPSDIAVEWESNGQPENNYKTTPPVLDSDGSFFLYSRLTVDKSRWQEGNVFSCSVMHEALHNHYTQKSLSLSLGKGGGGSGGGGSDVQLQESGGGLVQAGGSLRLSCAASGRTISRYAVGWFRRPPAKEREFIGINWSGGSTTYADSAEGRFIISRDNAKNTVYLQMNSLKPEDTAVYYCAVPSVLVQGGISNPSQYDYWGQGTQVTVS chain 2: GPPCPPCPAPEFLGGPSVFLFPPKPKDTLMISRTPEVTCVVVDVSQEDPEVQFNWYVDGVEVHNAKTKPREEQFNSTYRVVSVLTVLHQDWLNGKEYKCKVSNKGLPSSIEKTISKAKGQPREPQVCTLPPSQEEMTKNQVSLSCAVKGFYPSDIAVEWESNGQPENNYKTTPPVLDSDGSFFLVSRLTVDKSRWQEGNVFSCSVMHEALHNHYTQKSLSLSLGKGGGGSGGGGSEVQLLESGGGLVQPGGSLRLSCAASGFTFGNYDMAWVRQAPGKRPEWVSSIDTGGDITHYADSVKGRFTISRDNAKNTLYLQMNSLRPEDTAVYWCATDEEYALGPNEFDYYGQGTLVTVSS
50 nM,> 95%,CIgG4E3A1(G4S)2 (Fc fusion) chain 1: GPPCPPCPAPEFLGGPSVFLFPPKPKDTLMISRTPEVTCVVVDVSQEDPEVQFNWYVDGVEVHNAKTKPREEQFNSTYRVVSVLTVLHQDWLNGKEYKCKVSNKGLPSSIEKTISKAKGQPREPQVYTLPPCQEEMTKNQVSLWCLVKGFYPSDIAVEWESNGQPENNYKTTPPVLDSDGSFFLYSRLTVDKSRWQEGNVFSCSVMHEALHNHYTQKSLSLSLGKGGGGSGGGGSDVQLQESGGGLVQAGGSLRLACAASGRTLSSYVVSWFRQAPGKERKFVAAITWSGLSTTYLDSVQGRFTISRDNTKDTVYLQMNSLKPQDTAIYYCAAGPNIPSILRTRESEYAYWGQGTQVTVS chain 2: GPPCPPCPAPEFLGGPSVFLFPPKPKDTLMISRTPEVTCVVVDVSQEDPEVQFNWYVDGVEVHNAKTKPREEQFNSTYRVVSVLTVLHQDWLNGKEYKCKVSNKGLPSSIEKTISKAKGQPREPQVCTLPPSQEEMTKNQVSLSCAVKGFYPSDIAVEWESNGQPENNYKTTPPVLDSDGSFFLVSRLTVDKSRWQEGNVFSCSVMHEALHNHYTQKSLSLSLGKGGGGSGGGGSEVQLLESGGGLVQPGGSLRLSCAASGFTFGNYDMAWVRQAPGKRPEWVSSIDTGGDITHYADSVKGRFTISRDNAKNTLYLQMNSLRPEDTAVYWCATDEEYALGPNEFDYYGQGTLVTVSS
1000 nM,50%,CIgG4E2A1(G4S)1 (Fc fusion) chain 1: GPPCPPCPAPEFLGGPSVFLFPPKPKDTLMISRTPEVTCVVVDVSQEDPEVQFNWYVDGVEVHNAKTKPREEQFNSTYRVVSVLTVLHQDWLNGKEYKCKVSNKGLPSSIEKTISKAKGQPREPQVYTLPPCQEEMTKNQVSLWCLVKGFYPSDIAVEWESNGQPENNYKTTPPVLDSDGSFFLYSRLTVDKSRWQEGNVFSCSVMHEALHNHYTQKSLSLSLGKGGGGSDVQLQESGGGLVQAGGSLRLSCAASGRTISRYAVGWFRRPPAKEREFIGINWSGGSTTYADSAEGRFIISRDNAKNTVYLQMNSLKPEDTAVYYCAVPSVLVQGGISNPSQYDYWGQGTQVTVS chain 2: GPPCPPCPAPEFLGGPSVFLFPPKPKDTLMISRTPEVTCVVVDVSQEDPEVQFNWYVDGVEVHNAKTKPREEQFNSTYRVVSVLTVLHQDWLNGKEYKCKVSNKGLPSSIEKTISKAKGQPREPQVCTLPPSQEEMTKNQVSLSCAVKGFYPSDIAVEWESNGQPENNYKTTPPVLDSDGSFFLVSRLTVDKSRWQEGNVFSCSVMHEALHNHYTQKSLSLSLGKGGGGSEVQLLESGGGLVQPGGSLRLSCAASGFTFGNYDMAWVRQAPGKRPEWVSSIDTGGDITHYADSVKGRFTISRDNAKNTLYLQMNSLRPEDTAVYWCATDEEYALGPNEFDYYGQGTLVTVSS
130 nM,85%,CIgG4E3A1(G4S)1 (Fc fusion) chain 1: GPPCPPCPAPEFLGGPSVFLFPPKPKDTLMISRTPEVTCVVVDVSQEDPEVQFNWYVDGVEVHNAKTKPREEQFNSTYRVVSVLTVLHQDWLNGKEYKCKVSNKGLPSSIEKTISKAKGQPREPQVYTLPPCQEEMTKNQVSLWCLVKGFYPSDIAVEWESNGQPENNYKTTPPVLDSDGSFFLYSRLTVDKSRWQEGNVFSCSVMHEALHNHYTQKSLSLSLGKGGGGSDVQLQESGGGLVQAGGSLRLACAASGRTLSSYVVSWFRQAPGKERKFVAAITWSGLSTTYLDSVQGRFTISRDNTKDTVYLQMNSLKPQDTAIYYCAAGPNIPSILRTRESEYAYWGQGTQVTVS chain 2: GPPCPPCPAPEFLGGPSVFLFPPKPKDTLMISRTPEVTCVVVDVSQEDPEVQFNWYVDGVEVHNAKTKPREEQFNSTYRVVSVLTVLHQDWLNGKEYKCKVSNKGLPSSIEKTISKAKGQPREPQVCTLPPSQEEMTKNQVSLSCAVKGFYPSDIAVEWESNGQPENNYKTTPPVLDSDGSFFLVSRLTVDKSRWQEGNVFSCSVMHEALHNHYTQKSLSLSLGKGGGGSEVQLLESGGGLVQPGGSLRLSCAASGFTFGNYDMAWVRQAPGKRPEWVSSIDTGGDITHYADSVKGRFTISRDNAKNTLYLQMNSLRPEDTAVYWCATDEEYALGPNEFDYYGQGTLVTVSS
,25%,CIgG4E2A1(RS) (Fc fusion) chain 1: GPPCPPCPAPEFLGGPSVFLFPPKPKDTLMISRTPEVTCVVVDVSQEDPEVQFNWYVDGVEVHNAKTKPREEQFNSTYRVVSVLTVLHQDWLNGKEYKCKVSNKGLPSSIEKTISKAKGQPREPQVYTLPPCQEEMTKNQVSLWCLVKGFYPSDIAVEWESNGQPENNYKTTPPVLDSDGSFFLYSRLTVDKSRWQEGNVFSCSVMHEALHNHYTQKSLSLSLGKRSDVQLQESGGGLVQAGGSLRLSCAASGRTISRYAVGWFRRPPAKEREFIGINWSGGSTTYADSAEGRFIISRDNAKNTVYLQMNSLKPEDTAVYYCAVPSVLVQGGISNPSQYDYWGQGTQVTVS chain 2: GPPCPPCPAPEFLGGPSVFLFPPKPKDTLMISRTPEVTCVVVDVSQEDPEVQFNWYVDGVEVHNAKTKPREEQFNSTYRVVSVLTVLHQDWLNGKEYKCKVSNKGLPSSIEKTISKAKGQPREPQVCTLPPSQEEMTKNQVSLSCAVKGFYPSDIAVEWESNGQPENNYKTTPPVLDSDGSFFLVSRLTVDKSRWQEGNVFSCSVMHEALHNHYTQKSLSLSLGKRSEVQLLESGGGLVQPGGSLRLSCAASGFTFGNYDMAWVRQAPGKRPEWVSSIDTGGDITHYADSVKGRFTISRDNAKNTLYLQMNSLRPEDTAVYWCATDEEYALGPNEFDYYGQGTLVTVSS
,30%,CIgG4E3A1(RS) (Fc fusion) chain 1: GPPCPPCPAPEFLGGPSVFLFPPKPKDTLMISRTPEVTCVVVDVSQEDPEVQFNWYVDGVEVHNAKTKPREEQFNSTYRVVSVLTVLHQDWLNGKEYKCKVSNKGLPSSIEKTISKAKGQPREPQVYTLPPCQEEMTKNQVSLWCLVKGFYPSDIAVEWESNGQPENNYKTTPPVLDSDGSFFLYSRLTVDKSRWQEGNVFSCSVMHEALHNHYTQKSLSLSLGKRSDVQLQESGGGLVQAGGSLRLACAASGRTLSSYVVSWFRQAPGKERKFVAAITWSGLSTTYLDSVQGRFTISRDNTKDTVYLQMNSLKPQDTAIYYCAAGPNIPSILRTRESEYAYWGQGTQVTVS chain 2: GPPCPPCPAPEFLGGPSVFLFPPKPKDTLMISRTPEVTCVVVDVSQEDPEVQFNWYVDGVEVHNAKTKPREEQFNSTYRVVSVLTVLHQDWLNGKEYKCKVSNKGLPSSIEKTISKAKGQPREPQVCTLPPSQEEMTKNQVSLSCAVKGFYPSDIAVEWESNGQPENNYKTTPPVLDSDGSFFLVSRLTVDKSRWQEGNVFSCSVMHEALHNHYTQKSLSLSLGKRSEVQLLESGGGLVQPGGSLRLSCAASGFTFGNYDMAWVRQAPGKRPEWVSSIDTGGDITHYADSVKGRFTISRDNAKNTLYLQMNSLRPEDTAVYWCATDEEYALGPNEFDYYGQGTLVTVSS
160 nM,75%,CIgG4E2A1(G4S)3 (Fc fusion) chain 1: GPPCPPCPAPEFLGGPSVFLFPPKPKDTLMISRTPEVTCVVVDVSQEDPEVQFNWYVDGVEVHNAKTKPREEQFNSTYRVVSVLTVLHQDWLNGKEYKCKVSNKGLPSSIEKTISKAKGQPREPQVYTLPPCQEEMTKNQVSLWCLVKGFYPSDIAVEWESNGQPENNYKTTPPVLDSDGSFFLYSRLTVDKSRWQEGNVFSCSVMHEALHNHYTQKSLSLSLGKGGGGSGGGGSGGGGSDVQLQESGGGLVQAGGSLRLSCAASGRTISRYAVGWFRRPPAKEREFIGINWSGGSTTYADSAEGRFIISRDNAKNTVYLQMNSLKPEDTAVYYCAVPSVLVQGGISNPSQYDYWGQGTQVTVS chain 2: GPPCPPCPAPEFLGGPSVFLFPPKPKDTLMISRTPEVTCVVVDVSQEDPEVQFNWYVDGVEVHNAKTKPREEQFNSTYRVVSVLTVLHQDWLNGKEYKCKVSNKGLPSSIEKTISKAKGQPREPQVCTLPPSQEEMTKNQVSLSCAVKGFYPSDIAVEWESNGQPENNYKTTPPVLDSDGSFFLVSRLTVDKSRWQEGNVFSCSVMHEALHNHYTQKSLSLSLGKGGGGSGGGGSGGGGSEVQLLESGGGLVQPGGSLRLSCAASGFTFGNYDMAWVRQAPGKRPEWVSSIDTGGDITHYADSVKGRFTISRDNAKNTLYLQMNSLRPEDTAVYWCATDEEYALGPNEFDYYGQGTLVTVSS
36 nM,90%,CIgG4E3A1(G4S)3 (Fc fusion) chain 1: GPPCPPCPAPEFLGGPSVFLFPPKPKDTLMISRTPEVTCVVVDVSQEDPEVQFNWYVDGVEVHNAKTKPREEQFNSTYRVVSVLTVLHQDWLNGKEYKCKVSNKGLPSSIEKTISKAKGQPREPQVYTLPPCQEEMTKNQVSLWCLVKGFYPSDIAVEWESNGQPENNYKTTPPVLDSDGSFFLYSRLTVDKSRWQEGNVFSCSVMHEALHNHYTQKSLSLSLGKGGGGSGGGGSGGGGSDVQLQESGGGLVQAGGSLRLACAASGRTLSSYVVSWFRQAPGKERKFVAAITWSGLSTTYLDSVQGRFTISRDNTKDTVYLQMNSLKPQDTAIYYCAAGPNIPSILRTRESEYAYWGQGTQVTVS chain 2: GPPCPPCPAPEFLGGPSVFLFPPKPKDTLMISRTPEVTCVVVDVSQEDPEVQFNWYVDGVEVHNAKTKPREEQFNSTYRVVSVLTVLHQDWLNGKEYKCKVSNKGLPSSIEKTISKAKGQPREPQVCTLPPSQEEMTKNQVSLSCAVKGFYPSDIAVEWESNGQPENNYKTTPPVLDSDGSFFLVSRLTVDKSRWQEGNVFSCSVMHEALHNHYTQKSLSLSLGKGGGGSGGGGSGGGGSEVQLLESGGGLVQPGGSLRLSCAASGFTFGNYDMAWVRQAPGKRPEWVSSIDTGGDITHYADSVKGRFTISRDNAKNTLYLQMNSLRPEDTAVYWCATDEEYALGPNEFDYYGQGTLVTVSS
